Target: ^35S-labelled in vitro-translated Flag-B56γ (X. laevis PP2A regulatory B subunit B56γ)
Assay: pull-down (amylose beads) with autoradiography quantification
Details: 1 h, read off a plot

MBP-fused Apc1-loop^500 wild type (residues 515-584 of Xenopus tropicalis Apc1), sequence (Q08D52 entry or part of it, stated change not applied): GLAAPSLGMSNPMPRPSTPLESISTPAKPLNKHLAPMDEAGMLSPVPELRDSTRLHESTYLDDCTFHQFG

- response (anaphase extract (Ana) supplemented with CycB∆167, 23°C, lane 16, parent: est. 3.3): 1.1 A.U.
- response (interphase extract (Inter), 23°C, lane 12, parent: est. 0.95): 1.1 A.U.
Substance: MBP-fused Apc1-loop^500 wild type (residues 515-584 of Xenopus tropicalis Apc1) (from UniProt Q08D52) T532A; T539A; S558A
